The values below come from PMC12641570, “Surface‐modified protein crowders influence mutant huntingtin exon 1 aggregation via crowding effects, crowder association, and crowder solution stability” (Protein Science : A Publication of the Protein Society, 2025).

In the experiment the target is T1, bovine serum albumin cationized by reaction with ethylenediamine, net surface charge +78e (BSA +78e) (bovine, UniProt P02769 25-607, reacted with ethylenediamine; net surface charge +78e (±3e)).
T1 construct: bovine serum albumin (BSA), 66 kDa protein; Chemically surface-modified; DLS radius is 16 nm, from which the authors infer oligomers; also called positive BSA (+78e); cationized BSA; source: BSA modified by reaction with ethylenediamine (published procedure); chemicals bought: Sigma‐Aldrich unless mentioned otherwise
Briefly: MST; NanoTemper Monolith; about 10 μM mHttex1‐VC (target, mCherry fluorescence read) with different concentrations of BSA (ligand); within 1 h after cleaving MBP; apparent. The settings on record: both partners purified.

B1: mutant huntingtin exon 1 (45Q) fused to mVenus/mCherry (mHttex1‐VC), after cleavage of MBP (domain or fragment)
chain: MATLEKLMKAFESLKSFQQQQQQQQQQQQQQQQQQQQQQQQQQQQQQQQQQQQQQQQQQQQQPPPPPPPPPPPQLPQPPPQAQPLLPQPQPPPPPPPPPPGPAVAEEPLHRP
For the molecule B1, the Kd is above 1 mM.
